This experiment concerns the target CFF-Myc (UniProt P01732). Kind of experiment: co-IP.

We go through one substance from article doi:10.1101/059451.

For “HA-TNPO1 (from UniProt Q92973 1-898) (natural protein)”, the fold more TNPO1 co-IPed in the presence of Rab8-T22N than -Q67L or -wt is 3 fold.
